# Patent US20100015126A1, “Methods of Binding of Cross-Beta Structures By Chaperones” (priority 2006, published 2010)
# What was measured:
# [1] = Transmission electron microscopy (TEM); type: physicochemical; conditions: for TEM: 2.5 mg/ml peptide stocks; for Appearance on TEM images: magnification 10K
# Method: Transmission Electron Microscopy (TEM)
# TEM images were collected using a Jeol 1200 EX transmission electron microscope (Jeol Ltd., Tokyo, Japan) at an excitation voltage of 80 kV. For each sample, the formvar and carbon-coated side of a 100-mesh copper or nickel grid was positioned on a 5 μl drop of protein solution for 5 minutes. Afterwards, it was positioned on a 100 μl drop of PBS for 2 minutes, followed by three 2-minute incubations with a 100 μl drop of distilled water. The grids were then stained for 2 minutes with a 100 μl drop of 2% (m/v) methylcellulose with 0.4% uranyl acetate pH 4. Excess fluid was removed by streaking the side of the grids over filter paper, and the grids were subsequently dried under a lamp. Samples were analysed at a magnification of 10K.
# [2] = molecular target: T1, recombinant human HSP90beta (Homo sapiens, UniProt P08238); assay: ELISA: binding of HSP90 to immobilized (misfolded) protein ligands; conditions: 5 mM DTT in binding buffer
# T1 construct: purchased Dr. S. Rüdiger, Cellular Protein Chemistry, Utrecht University
# Method: Recombinant human HSP90beta was bought from Dr. S. Rüdiger (Cellular Protein Chemistry, Department of Chemistry, Faculty of Science, Utrecht University). HSP90beta eluted from an anion exchange column was supplied in 35 mM Bis-Tris/25mM Tris, 5 mM DTT, approximately 385 mM NaCl, approximately pH 9.0. The HSP90beta concentration was 5.0 μM (450 μg/ml with a MW of 90.000 Da; extinction coefficient of 53740 l/(mol*cm)). The supplied frozen stock is kept at −80° C. Before use, the stock is quickly thawed almost completely in a 37° C. water bath, and kept at wet ice. Before use, the HSP90beta solution is centrifuged for 5 minutes at 16,000*g at 4° C. During dilution of HSP90beta solution, 5 mM DTT should be incorporated in the dilution buffer, to keep free Cys residues. Thawed HSP90beta was aliquoted and snap frozen in liquid nitrogen before re-storage at −80° C.
# Binding of chaperones to immobilized (misfolded) protein ligands was determined using an enzyme linked immuno sorbent assay (ELISA) approach. For this purpose 50 μl/well of potential ligands at indicated concentrations or coat buffer only for control and background measurement purposes, were coated overnight at 4° C. or coated for 1 h at room temperature, with motion, in 50 mM NaHCO3 pH 9.6 (coat buffer). In general, ligands were coated at 5 μg/ml, unless stated otherwise. For example, BiP binding peptides 6BB# and oxLDL were coated at 50 μg/ml. Native haemoglobin (Sigma-Aldrich, H7379), albumin, IgIV Gammagard and ovalbumin controls were prepared from lyophilized stocks. The controls were prepared by dissolving lyophilized proteins at 1 mg/ml in PBS upon resuspending by pipetting, followed by a 30 minutes period at the roller device, at room temperature. The protein solutions were centrifuged for 10 minutes at 16,000*g and diluted in coat buffer. After coating the plates were washed at least three times with 50 mM Tris-HCl pH 7.3, 150 mM NaCl, 0.1% v/v Tween20, and blocked with Blocking reagent (Roche Diagnostics, Almere, The Netherlands; 11112589001), for 1 h at room temperature, with motion. Plates were washed three times and incubated in triplicate with indicated chaperone dilution series, at 50 μl/well, for 1 h at room temperature, with constant motion. For HSP90, 5 mM DTT is incorporated in the binding buffer (PBS/0.1% Tween20) to avoid unwanted disulfide bond formation of the HSP90. Plates were washed three times and incubated with anti-FLAG antibody (mouse antibody, M2, peroxidase conjugate; Sigma, A-8592) for BiP-FLAG-His, anti-His-tag antibody (Mouse Monoclonal Antibody, Cat. No. 70796, Novagen [0.2 mg/ml]) for HSP60, a 1:1 mix of 500-fold diluted anti-HSP90beta antibodies (Stressgen, SPA-643 [mouse monoclonal IgM], SPA-646 [rabbit polyclonal]) for HSP90 and an anti-DnaK antibody (Stressgen, 023SPA-880D [mouse monoclonal antibody]) for DnaK. After four wash cycles, secondary antibodies were added to the wells when required, 50 μl/well, for 45′ at room temperature, with motion. RAMPO and SWARPO were used at 3000 times dilution. […] In a second experiment with more immobilized misfolded proteins and controls, the detection of bound HSP90 with the mix of two anti-HSP90 antibodies was achieved by mixing 1:1500 SWARPO with 1:3000 RAMPO. After 5 washes with wash buffer followed by two washes with PBS, binding of antibodies was assessed. […] Plates were read at 450 nm. Triplicates were averaged and standard deviations calculated. […]
# T1 sequence (P08238 whole entry): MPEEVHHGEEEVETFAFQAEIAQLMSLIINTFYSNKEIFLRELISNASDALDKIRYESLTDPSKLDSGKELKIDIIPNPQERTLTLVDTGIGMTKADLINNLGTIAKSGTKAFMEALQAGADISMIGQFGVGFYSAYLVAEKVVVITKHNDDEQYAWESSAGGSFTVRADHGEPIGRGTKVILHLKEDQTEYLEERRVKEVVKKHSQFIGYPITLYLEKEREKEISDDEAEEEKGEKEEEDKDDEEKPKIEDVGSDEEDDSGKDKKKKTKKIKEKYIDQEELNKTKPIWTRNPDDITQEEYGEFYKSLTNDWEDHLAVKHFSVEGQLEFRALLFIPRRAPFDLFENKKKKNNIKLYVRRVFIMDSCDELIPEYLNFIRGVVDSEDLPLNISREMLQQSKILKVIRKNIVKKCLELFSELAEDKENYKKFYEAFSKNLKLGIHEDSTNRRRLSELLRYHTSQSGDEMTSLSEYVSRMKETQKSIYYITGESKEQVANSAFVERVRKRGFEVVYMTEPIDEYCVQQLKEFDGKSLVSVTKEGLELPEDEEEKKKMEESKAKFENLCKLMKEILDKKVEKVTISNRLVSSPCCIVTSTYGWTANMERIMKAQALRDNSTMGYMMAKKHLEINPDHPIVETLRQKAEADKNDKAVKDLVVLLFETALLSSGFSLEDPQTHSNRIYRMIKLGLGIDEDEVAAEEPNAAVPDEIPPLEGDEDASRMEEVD
Substance,TEM [1],Binding of concentration series of HSP90 to coated ligand [2],Appearance on TEM images [1]
"GSNKGAIIGLM [6BB6, Human Aβ (25-35)]",Thin aggregated,has been established,–
"KLVFFAE [6BB12, Human Aβ16-22]",Large dense clusters,did not bind,–
BSA-AGE,–,–,non-fibrillar amorphous aggregates
Hb: non-modified human haemoglobin control,–,did not bind,–
HbAGE: human haemoglobin glycated with glucose-6-phosphate for 75 weeks,–,has been established,non-fibrillar amorphous aggregates
AGEYYAAL [6BB7],Very few small,little binding,–
